Data as given in US20210388110A1.
Changes are numbered by the printed parent chain. One block for each binder: values may come before it.

How the values were obtained:
Mab Select SuRe Ligand = assay: SPR (Biacore T200), SuRe ligand on CM5 chip, antibody 5 ug/mL
[1] = target: extracellular matrix (BD Matrigel); assay: ECL on Matrigel-coated plate, relative to MRAH-G1d/MRAL-k0

SuRe binding (RU) (Mab Select SuRe Ligand): 2.7 RU
B1: TR01H096-E2702GsKsc/L0011-k0 (antibody, human IgG4 S228P, kappa, N297A, V domains shown)
VH: QVQLVESGGGLVQPGRSLRLSCAASGFTFSNAWMHWVRQAPGKGLEWVAQIKDKSQNYAGYYAESVKGRFTISRDDSKNSLYLQMNSLKTEDTAVYYCRYVHYAAGYGVDAWGQGTTVTVSS
VL: DIVMTQSPLSLPVTPGEPASISCRSSQPLVHSNRNTYLHWYQQKPGQAPRLLIYKVSNRFSGVPDRFSGSGSGTDFTLKISRVEAEDVGVYYCGQGTQVPYTFGQGTKLEIKR

SuRe binding (RU) (Mab Select SuRe Ligand): 0.1 RU
B2: TR01H097-E2702GsKsc/L0011-k0 (antibody, human IgG4 S228P, kappa, N297A, V domains shown)
VH: B1 VH with G60L
VL: B1 VL

SuRe binding (RU) (Mab Select SuRe Ligand): 1.4 RU
B3: TR01H107-E2702GsKsc/L0011-k0 (antibody, human IgG4 S228P, kappa, N297A, V domains shown)
VH: B1 VH with G60T, Y62Q
VL: B1 VL

SuRe binding (RU) (Mab Select SuRe Ligand): 0.8 RU
B4: TR01H105-E2702GsKsc/L0011-k0 (antibody, human IgG4 S228P, kappa, N297A, V domains shown)
VH: B1 VH with G60T, Y62L
VL: B1 VL

SuRe binding (RU) (Mab Select SuRe Ligand): 0 RU
B5: TR01H106-E2702GsKsc/L0011-k0 (antibody, human IgG4 S228P, kappa, N297A, V domains shown)
VH: B1 VH with G60T, Y62P
VL: B1 VL

SuRe binding (RU) (Mab Select SuRe Ligand): 2.2 RU
B6: TR01H109-E2702GsKsc/L0011-k0 (antibody, human IgG4 S228P, kappa, N297A, V domains shown)
VH: B1 VH with G60T, Y62V
VL: B1 VL

SuRe binding (RU) (Mab Select SuRe Ligand): 0.4 RU
B7: TR01H108-E2702GsKsc/L0011-k0 (antibody, human IgG4 S228P, kappa, N297A, V domains shown)
VH: B1 VH with G60T, Y62T
VL: B1 VL

SuRe binding (RU) (Mab Select SuRe Ligand): -0.2 RU
B8: TR01H095-E2702GsKsc/L0011-k0 (antibody, human IgG4 S228P, kappa, N297A, V domains shown)
VH: B1 VH with G60F
VL: B1 VL

SuRe binding (RU) (Mab Select SuRe Ligand): 0.5 RU
B9: TR01H101-E2702GsKsc/L0011-k0 (antibody, human IgG4 S228P, kappa, N297A, V domains shown)
VH: B1 VH with G60V
VL: B1 VL

SuRe binding (RU) (Mab Select SuRe Ligand): 1 RU
B10: TR01H104-E2702GsKsc/L0011-k0 (antibody, human IgG4 S228P, kappa, N297A, V domains shown)
VH: B1 VH with G60T, Y62I
VL: B1 VL

SuRe binding (RU) (Mab Select SuRe Ligand): 0.6 RU
B11: TR01H099-E2702GsKsc/L0011-k0 (antibody, human IgG4 S228P, kappa, N297A, V domains shown)
VH: B1 VH with G60Q
VL: B1 VL

SuRe binding (RU) (Mab Select SuRe Ligand): 1.6 RU
B12: TR01H098-E2702GsKsc/L0011-k0 (antibody, human IgG4 S228P, kappa, N297A, V domains shown)
VH: B1 VH with G60P
VL: B1 VL

SuRe binding (RU) (Mab Select SuRe Ligand): 0.5 RU
B13: TR01H102-E2702GsKsc/L0011-k0 (antibody, human IgG4 S228P, kappa, N297A, V domains shown)
VH: B1 VH with G60T, Y62F
VL: B1 VL

SuRe binding (RU) (Mab Select SuRe Ligand): 1.4 RU
B14: TR01H103-E2702GsKsc/L0011-k0 (antibody, human IgG4 S228P, kappa, N297A, V domains shown)
VH: B1 VH with G60T, Y62G
VL: B1 VL

ECM binding ratio (standard = 1) [1]: 50.4
B15: TR01H040-E2702GsKsc/H0610-E2704sEpsc/L0208-k0 (bispecific antibody, human IgG4 S228P, kappa, N297A)
heavy 1: QVQLVESGGGLVQPGRSLRLSCAASGFTFSNAWMHWVRQAPGKGLEWVAQIKDKSQNYATYYAESVKGRFTISRADSKNSIYLQMNSLKTEDTAVYYCRYVHYSASYGVDAWGQGTTVTVSSASTKGPSVFPLAPCSRSTSESTAALGCLVKDYFPEPVTVSWNSGALTSGVHTFPAVLQSSGLYSLSSVVTVPSSSLGTKTYTCNVDHKPSNTKVDKRVESKYGPPCPPCPAPEFRGGPKVFLFPPKPKDTLMISRTPEVTCVVVDVSQEDPEVQFNWYVDGVEVHNAKTKPREEQFASTYRVVSVLTVLHQDWLNGKEYKCKVSNKGLPSSIEKTISKAKGQPREPQVYTLPPSQKEMTKNQVSLTCLVKGFYPSDIAVEWESNGQPENNYKTTPPVLDSDGSFFLYSKLTVDKSRWQEGNVFSCSVMHEALHNRYTQKSLSLSP
heavy 2: QVQLVQSGAEVKKPGASVKVSCKASGYTFTDYEMHWIRQPPGQGLEWIGAIDGKTPDTAYSQKFKGRVTLTADKSTSTAYMELSSLTSEDTAVYYCTRFYSYTYWGQGTLVTVSSASTKGPSVFPLAPCSRSTSESTAALGCLVKDYFPEPVTVSWNSGALTSGVHTFPAVLQSSGLYSLSSVVTVPSSSLGTQTYTCNVDHKPSNTKVDKRVESKYGPPCPPCPAPEFRGGPKVFLFPPKPKDTLMISRTPEVTCVVVDVSQEDPEVQFNWYVDGVEVHNAKTKPREEQFASTYRVVSVLTVLHQDWLNGKEYKCKVSNKGLPSSIEKTISKAKGQPREPQVYTLPPSQEEMTKNQVSLTCLVKGFYPSDIAVEWESNGQPENNYKTTPPVLDSDGSFFLYSKLTVDKSRWQEGNVFSCSVMHEALHNHYTQESLSLSP
light: DIVMTQSPLSLPVTPGEPASISCRSSQSPVHSNRNTYLHWYQQKPGQAPRLLIYKVSNRFWGVPDRFSGSGSGTDFTLKISRVEAEDVGVYYCYQGTQVPYTFGQGTKLEIKRTVAAPSVFIFPPSDEQLKSGTASVVCLLNNFYPREAKVQWKVDNALQSGNSQESVTEQDSKDSTYSLSSTLTLSKADYEKHKVYACEVTHQGLSSPVTKSFNRGEC

ECM binding ratio (standard = 1) [1]: 2.5
B16: TR01H113-E2702GsKsc/GCH065-E2704sEpsc/L0011-k0 (bispecific antibody, human IgG4 S228P, kappa, N297A)
heavy 1: B15 heavy 1 with L11V, R16G, Y62V, S104A, S106G, A111I
heavy 2: B15 heavy 2 with K19T, Q43E, K54P, Q62E
light: B15 light with S28P, P29L, W61S, Y94G

ECM binding ratio (standard = 1) [1]: 15.4
B17: TR01H040-E2702GsKsc/H0610-E2704sEpsc/L0206-k0 (bispecific antibody, human IgG4 S228P, kappa, N297A)
heavy 1: B15 heavy 1
heavy 2: B15 heavy 2
light: B15 light with W61S

ECM binding ratio (standard = 1) [1]: 15.5
B18: TR01H040-E2702GsKsc/H0610-E2704sEpsc/L0211-k0 (bispecific antibody, human IgG4 S228P, kappa, N297A)
heavy 1: B15 heavy 1
heavy 2: B15 heavy 2
light: B15 light with S28P, W61S

ECM binding ratio (standard = 1) [1]: 1.3
B19: TR01H084-E2702GsKsc/GCH065-E2704sEpsc/L0011-k0 (bispecific antibody, human IgG4 S228P, kappa, N297A)
heavy 1: B15 heavy 1 with L11V, R16G, S104A, S106G, A111I
heavy 2: B15 heavy 2 with K19T, Q43E, K54P, Q62E
light: B15 light with S28P, P29L, W61S, Y94G

ECM binding ratio (standard = 1) [1]: 1.7
B20: TR01H082-E2702GsKsc/GCH065-E2704sEpsc/L0011-k0 (bispecific antibody, human IgG4 S228P, kappa, N297A)
heavy 1: B15 heavy 1 with A75D, I81L, S104A, S106G
heavy 2: B15 heavy 2 with K19T, Q43E, K54P, Q62E
light: B15 light with S28P, P29L, W61S, Y94G

ECM binding ratio (standard = 1) [1]: 1.2
B21: TR01H084-E2702GsKsc/GCH094-E2704sEpsc/L0011-k0 (bispecific antibody, human IgG4 S228P, kappa, N297A)
heavy 1: B15 heavy 1 with L11V, R16G, S104A, S106G, A111I
heavy 2: B15 heavy 2 with K19T, I37V, P40A, Q43E, I48M, K54E, Q62E
light: B15 light with S28P, P29L, W61S, Y94G

ECM binding ratio (standard = 1) [1]: 3.3
B22: TR01H067-E2702GsKsc/GCH054-E2704sEpsc/L0212-k0 (bispecific antibody, human IgG4 S228P, kappa, N297A)
heavy 1: B15 heavy 1 with A75D, I81L, S104A
heavy 2: B15 heavy 2 with K19T, Q43E, K54E, Q62E
light: B15 light with S25P, W61S

ECM binding ratio (standard = 1) [1]: 0.7
B23: TR01H109-E2702GsKsc/GCH065-E2704sEpsc/L0011-k0 (bispecific antibody, human IgG4 S228P, kappa, N297A)
heavy 1: B15 heavy 1 with Y62V, A75D, I81L, S104A, S106G
heavy 2: B15 heavy 2 with K19T, Q43E, K54P, Q62E
light: B15 light with S28P, P29L, W61S, Y94G

ECM binding ratio (standard = 1) [1]: 7.4
B24: TR01H040-E2702GsKsc/H0610-E2704sEpsc/L0209-k0 (bispecific antibody, human IgG4 S228P, kappa, N297A)
heavy 1: B15 heavy 1
heavy 2: B15 heavy 2
light: B15 light with L38I, W61S

ECM binding ratio (standard = 1) [1]: 0.5
B25: TR01H067-E2702GsKsc/GCH054-E2704sEpsc/L0201-k0 (bispecific antibody, human IgG4 S228P, kappa, N297A)
heavy 1: B15 heavy 1 with A75D, I81L, S104A
heavy 2: B15 heavy 2 with K19T, Q43E, K54E, Q62E
light: B15 light with S28P, W61S, Y94G

ECM binding ratio (standard = 1) [1]: 0.8
B26: TR01H040-E2702GsKsc/H0610-E2704sEpsc/L0203-k0 (bispecific antibody, human IgG4 S228P, kappa, N297A)
heavy 1: B15 heavy 1
heavy 2: B15 heavy 2
light: B15 light with L38I, W61S, Y94G

ECM binding ratio (standard = 1) [1]: 0.6
B27: TR01H067-E2702GsKsc/GCH054-E2704sEpsc/L0222-k0 (bispecific antibody, human IgG4 S228P, kappa, N297A)
heavy 1: B15 heavy 1 with A75D, I81L, S104A
heavy 2: B15 heavy 2 with K19T, Q43E, K54E, Q62E
light: B15 light with L38I, H39Q, W61S

ECM binding ratio (standard = 1) [1]: 0.8
B28: TR01H040-E2702GsKsc/H0610-E2704sEpsc/L0000-k0 (bispecific antibody, human IgG4 S228P, kappa, N297A)
heavy 1: B15 heavy 1
heavy 2: B15 heavy 2
light: B15 light with P29L, W61S, Y94G

ECM binding ratio (standard = 1) [1]: 1.1
B29: TR01H082-E2702GsKsc/GCH094-E2704sEpsc/L0201-k0 (bispecific antibody, human IgG4 S228P, kappa, N297A)
heavy 1: B15 heavy 1 with A75D, I81L, S104A, S106G
heavy 2: B15 heavy 2 with K19T, I37V, P40A, Q43E, I48M, K54E, Q62E
light: B15 light with S28P, W61S, Y94G

ECM binding ratio (standard = 1) [1]: 1.6
B30: TR01H113-E2702GsKsc/GCH094-E2704sEpsc/L0011-k0 (bispecific antibody, human IgG4 S228P, kappa, N297A)
heavy 1: B15 heavy 1 with L11V, R16G, Y62V, S104A, S106G, A111I
heavy 2: B15 heavy 2 with K19T, I37V, P40A, Q43E, I48M, K54E, Q62E
light: B15 light with S28P, P29L, W61S, Y94G

ECM binding ratio (standard = 1) [1]: 0.8
B31: TR01H040-E2702GsKsc/H0610-E2704sEpsc/L0201-k0 (bispecific antibody, human IgG4 S228P, kappa, N297A)
heavy 1: B15 heavy 1
heavy 2: B15 heavy 2
light: B15 light with S28P, W61S, Y94G

ECM binding ratio (standard = 1) [1]: 4.4
B32: TR01H040-E2702GsKsc/H0610-E2704sEpsc/L0204-k0 (bispecific antibody, human IgG4 S228P, kappa, N297A)
heavy 1: B15 heavy 1
heavy 2: B15 heavy 2
light: B15 light with W61R, Y94G

ECM binding ratio (standard = 1) [1]: 0.4
B33: TR01H109-E2702GsKsc/GCH094-E2704sEpsc/L0011-k0 (bispecific antibody, human IgG4 S228P, kappa, N297A)
heavy 1: B15 heavy 1 with Y62V, A75D, I81L, S104A, S106G
heavy 2: B15 heavy 2 with K19T, I37V, P40A, Q43E, I48M, K54E, Q62E
light: B15 light with S28P, P29L, W61S, Y94G

ECM binding ratio (standard = 1) [1]: 0.7
B34: TR01H082-E2702GsKsc/GCH094-E2704sEpsc/L0011-k0 (bispecific antibody, human IgG4 S228P, kappa, N297A)
heavy 1: B15 heavy 1 with A75D, I81L, S104A, S106G
heavy 2: B15 heavy 2 with K19T, I37V, P40A, Q43E, I48M, K54E, Q62E
light: B15 light with S28P, P29L, W61S, Y94G
